From patent US20230340159A1 (published 2023) come the findings set out here.

For assay [1], the target named is cyno EpCAM (cyno). The experiment in a line: ratio of cyno to human binding affinity.
For another assay, the target named is T1, human EpCAM (human, UniProt P16422 24-265, limits assumed).
T1 sequence (looked up): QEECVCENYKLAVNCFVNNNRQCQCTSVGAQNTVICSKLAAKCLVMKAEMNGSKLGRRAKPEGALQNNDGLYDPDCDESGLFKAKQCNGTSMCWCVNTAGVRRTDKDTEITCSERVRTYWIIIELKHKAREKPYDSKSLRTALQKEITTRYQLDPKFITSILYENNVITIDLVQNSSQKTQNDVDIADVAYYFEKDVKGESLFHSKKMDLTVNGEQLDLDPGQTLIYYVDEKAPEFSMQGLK
Nature of the assay: column 'Human binding affinity (nM)'; method not stated.

The target in assay [2] is cyno EpCAM (cyno). Nature of the assay: column 'Cyno binding affinity (nM)'; method not stated.

B1: hVIB-23 (VHH)
VHH: QVQLVESGGGLVQPGGSLTLSCVISGSFSALWAMRWYRQAPGQQRELVASSRGGTTSYADSVKGRFTISRDNSKNTLYLQMNSLRPEDTAVYYCNAIDGHLAYWGQGTLVTVSS
notes: Tied by label only (hVIB-23 = h23); also called EpCAM h23; sdABD-EpCAM h23
By Kd is commonly meant the concentration at which binding is half-saturated. The low end stands for higher affinity, the high end for lower affinity. Consider B1, for which, in the assay with cyno EpCAM [1], the Cyno/Human cross reactivity came to 12.6 ratio cyno/human. For the same molecule, the Kd with human EpCAM was determined as 4.1 nM; in the assay with cyno EpCAM [2], 58.8 nM.

B2: hVIB-13 (VHH)
VHH: QVQLVESGGGLVQPGGSLTLSCAASGTGSIFSINLMGWYRQAPGKQRELVARITSGDSTVYADSVKGRFTISRDNSKNTLYLQMNSLRPEDTAVYYCNLLLRSSPGATTPYWGQGTLVTVSS
notes: Tied by label only (hVIB-13 = h13); also called EpCAM h13; sdABD-EpCAM h13
As for B2, the Cyno/Human cross reactivity in the assay with cyno EpCAM [1] was found to be 4.5 ratio cyno/human. Further, the Kd with human EpCAM was 2.8 nM; in the assay with cyno EpCAM [2], 12.7 nM.
